Biological target: T1, human complement Factor H (human, UniProt P08603 19-1231)
T1 construct: also called FH; human FH; source: bought: Complement Technologies (purified human FH)
Assay: SPR
Conditions: both partners purified

T1 sequence (P08603 19-1231): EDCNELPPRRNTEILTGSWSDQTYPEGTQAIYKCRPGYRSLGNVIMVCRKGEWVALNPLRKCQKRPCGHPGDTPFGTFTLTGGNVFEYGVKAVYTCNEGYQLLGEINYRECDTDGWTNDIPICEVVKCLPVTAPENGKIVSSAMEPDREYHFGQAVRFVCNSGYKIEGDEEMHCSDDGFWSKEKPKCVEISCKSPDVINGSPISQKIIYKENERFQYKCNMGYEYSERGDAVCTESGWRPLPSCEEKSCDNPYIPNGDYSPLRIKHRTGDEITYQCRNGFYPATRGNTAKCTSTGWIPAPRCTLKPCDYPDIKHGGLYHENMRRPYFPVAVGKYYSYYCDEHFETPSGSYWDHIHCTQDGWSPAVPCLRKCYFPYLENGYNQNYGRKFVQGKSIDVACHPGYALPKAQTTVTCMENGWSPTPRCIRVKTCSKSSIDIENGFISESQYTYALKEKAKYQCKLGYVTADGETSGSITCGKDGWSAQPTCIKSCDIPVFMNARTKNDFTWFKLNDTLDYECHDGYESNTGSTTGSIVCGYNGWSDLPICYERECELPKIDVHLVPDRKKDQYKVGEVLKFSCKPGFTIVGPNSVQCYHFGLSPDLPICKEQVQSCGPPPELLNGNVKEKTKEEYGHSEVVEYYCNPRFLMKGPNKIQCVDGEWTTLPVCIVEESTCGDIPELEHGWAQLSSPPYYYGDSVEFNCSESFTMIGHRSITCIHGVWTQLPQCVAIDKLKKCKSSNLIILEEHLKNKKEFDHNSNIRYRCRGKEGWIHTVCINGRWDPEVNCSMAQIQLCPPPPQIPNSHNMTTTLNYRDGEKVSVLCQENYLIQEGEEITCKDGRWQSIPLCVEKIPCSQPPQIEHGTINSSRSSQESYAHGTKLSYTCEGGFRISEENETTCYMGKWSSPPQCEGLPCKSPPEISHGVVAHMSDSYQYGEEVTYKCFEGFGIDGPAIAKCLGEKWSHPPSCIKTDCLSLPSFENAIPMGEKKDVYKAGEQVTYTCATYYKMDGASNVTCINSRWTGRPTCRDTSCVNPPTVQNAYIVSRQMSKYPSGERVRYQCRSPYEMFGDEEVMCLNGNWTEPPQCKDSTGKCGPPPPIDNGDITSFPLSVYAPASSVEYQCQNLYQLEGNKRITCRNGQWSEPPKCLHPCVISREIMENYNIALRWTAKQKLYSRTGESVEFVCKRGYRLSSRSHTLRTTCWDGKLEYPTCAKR

B1: wild-type FHbp ID 1, soluble recombinant (natural protein)
chain: CSSGGGGVAADIGAGLADALTAPLDHKDKGLQSLTLDQSVRKNEKLKLAAQGAEKTYGNGDSLNTGKLKNDKVSRFDFIRQIEVDGQLITLESGEFQVYKQSHSALTAFQTEQIQDSEHSGKMVAKRQFRIGDIAGEHTSFDKLPEGGRATYRGTAFGSDDAGGKLTYTIDFAAKQGNGKIEHLKSPELNVDLAAADIKPDGKRHAVISGSVLYNQAEKGSYSLGIFGGKAQEVAGSAEVKTVNGIRHIGLAAKQ
notes: also called WT
- Kd: 17 nM

Source: article PMC4461315, “A Mutant Library Approach to Identify Improved Meningococcal Factor H Binding Protein Vaccine Antigens” (PLoS ONE, 2015)
